Assay results: US20260234282A1 (VIB VZW, published 2026)

How the values were obtained:
[1] = target: T1, recombinant human CD163 protein (hCD163-Avi-His6, U-Protein Express BV) (human, UniProt Q86VB7 42-1050, limits assumed, site-specifically biotinylated on the Avi tag in the ELISA format); assay: ELISA-format binding of radiolabeled sdAb to human CD163-Avi-His6 protein, read by gamma-counter
T1 construct: Bought recombinant protein; also called hCD163 protein; recombinant hCD163; not shown: Avi tag and His6 tag
From the text: (§1) FIG. 9. Determination of single domain antibody binding affinities after NOTA-conjugation via ELISA and a cell-binding study. (A) Binding of different concentrations of the ⁶⁸Gallium-labeled anti-CD163 single domain antibody (“[⁶⁸Ga]Ga-NOTA-anti-CD163 Nb”) to the human CD163-Avi-Hexahistine protein, compared to binding of a control irrelevant ⁶⁸Gallium-labeled single domain antibody (“[⁶⁸Ga]Ga-NOTA-Irr Nb”) (B) Single domain antibody binding of different concentrations of the […] anti-CD163 single domain antibody to HEK293T cells overexpressing mouse CD163.
(§2) Affinity determination of the [⁶⁸Ga]Ga-NOTA-anti-CD163 sdAb via ELISA was performed as described in the previous paragraph. The radioactive sdAb binding on the hCD163-Avi-His6 protein was measured via a γ-counter.

[2] = target: T1, recombinant human CD163 protein …; assay: ELISA-format binding to hCD163-Avi-His6, bound radioactivity by gamma counter (FIG. 9A); radiolabeled; recombinant hCD163 protein (FIG. 9A)
From the text: as §1, §2

[3] = target: T1, recombinant human CD163 protein …; assay: binding to recombinant hCD163 protein (SPR per paragraph 101); NOTA-conjugated, not radiolabeled; recombinant hCD163 protein
Experimental: (§3) The affinity of purified CD163-targeting sdAb and of the NOTA-conjugated anti-CD163 sdAb to recombinant hCD163 and mCD163 protein (U-Protein Express BV) was determined using the BIACORE-T200 (GE Healthcare, Freiburg, Germany). Surface plasmon resonance measurements were performed at 25° C. with HEPES buffered saline (HBS, 20 mM of HEPES pH 7.4, 150 mM of NaCl, 3.4 mM of EDTA 0.05% Tween-20) running buffer. The sdAbs were injected consecutively in 2-fold serial dilutions, from 250 to 1 nM. The association step was 100 s, the dissociation step was 200 s, and the two-step regeneration of 35 s at 30 μL·min-1, using 100 mM glycine at pH 3.0, was performed. Local curve fitting analysis was performed using the BIACORE evaluation software (GE Healthcare) by fitting the obtained sensorgrams to theoretical curves, assuming 1-1 binding geometries. For the determination of the equilibrium dissociation constant, the ratio of the association and dissociation rate constants were determined.

[4] = target: T2, human CD163 on HEK293T cells overexpressing hCD163 (human, UniProt Q86VB7 42-1156); assay: flow cytometry on HEK293T hCD163+ cells
T2 construct: whole, on cells; also called HEK hCD163+ cells; HEK293T hCD163+ cells
From the text: FIG. 2. Binding of the CD163-targeting single domain antibody (23766) to HEK293T cells overexpressing the hCD163 or mCD163 protein. A) Binding of different concentrations of the CD163-specific single domain antibody 23766 or an irrelevant single domain antibody (“Irr Nb”; R3b23) to HEK293T cells overexpressing (A), hCD163 or (B) mCD163 protein. Binding was detected as mean fluorescent intensity (MFI) via the C-terminal His-tag and a fluorescent labeled anti-His antibody using flow cytometry.
Serial dilutions of the CD163-targeting sdAb and of the NOTA-conjugated anti-CD163 sdAb were incubated with 500.000 HEK293T cells overexpressing hCD163 or mCD163 in FACS buffer (HBSS (Gibco) supplemented with 1% FBS and 2 mM EDTA (Duchefa Biochemie, Haarlem, The Netherlands)) for 1 h at 4° C. NOTA-sdAb binding was detected by incubation of the cells with a PE tagged anti-VHH Ab (1:500 in FACS buffer, Genscript, Piscataway, NJ, USA) for 30 min at 4° C. […] Next, sdAb binding was detected by incubation of the cells with an Alexa Fluor®-488 tagged anti-HA antibody (1:1000 in FACS buffer, clone 16B12, Biolegend, San Diego, CA, USA) for 30 min at 4° C. Again, cells were washed once with FACS buffer. sdAb binding was determined using the FACS CANTO II analyser (BD Biosciences, Franklin Lakes, NJ, USA). The mean fluorescent intensity of sdAb binding was determined using FlowJo version 10.

[5] = target: T1, recombinant human CD163 protein …; assay: SPR (Biacore T200), recombinant hCD163 protein
Experimental: as §3

[6] = target: T2, human CD163 on HEK293T cells …; assay: flow cytometry on HEK293T hCD163+ cells; mean ± S.D. of at least 3 independent experiments
Experimental: Serial dilutions of the CD163-targeting sdAb and of the NOTA-conjugated anti-CD163 sdAb were incubated with 500.000 HEK293T cells overexpressing hCD163 or mCD163 in FACS buffer (HBSS (Gibco) supplemented with 1% FBS and 2 mM EDTA (Duchefa Biochemie, Haarlem, The Netherlands)) for 1 h at 4° C. NOTA-sdAb binding was detected by incubation of the cells with a PE tagged anti-VHH Ab (1:500 in FACS buffer, Genscript, Piscataway, NJ, USA) for 30 min at 4° C. Cells were washed once with FACS buffer. Next, sdAb binding was detected by incubation of the cells with an Alexa Fluor®-488 tagged anti-HA antibody (1:1000 in FACS buffer, clone 16B12, Biolegend, San Diego, CA, USA) for 30 min at 4° C. Again, cells were washed once with FACS buffer. sdAb binding was determined using the FACS CANTO II analyser (BD Biosciences, Franklin Lakes, NJ, USA). The mean fluorescent intensity of sdAb binding was determined using FlowJo version 10.

[7] = target: T1, recombinant human CD163 protein …; assay: SPR, recombinant hCD163 protein; mean ± S.D. of at least 3 independent experiments; mean ± S.D of at least 3 independent experiments (Table 1B), not the single value of Table 1A
Experimental: as §3

T1 sequence (Q86VB7 42-1050 limits assumed): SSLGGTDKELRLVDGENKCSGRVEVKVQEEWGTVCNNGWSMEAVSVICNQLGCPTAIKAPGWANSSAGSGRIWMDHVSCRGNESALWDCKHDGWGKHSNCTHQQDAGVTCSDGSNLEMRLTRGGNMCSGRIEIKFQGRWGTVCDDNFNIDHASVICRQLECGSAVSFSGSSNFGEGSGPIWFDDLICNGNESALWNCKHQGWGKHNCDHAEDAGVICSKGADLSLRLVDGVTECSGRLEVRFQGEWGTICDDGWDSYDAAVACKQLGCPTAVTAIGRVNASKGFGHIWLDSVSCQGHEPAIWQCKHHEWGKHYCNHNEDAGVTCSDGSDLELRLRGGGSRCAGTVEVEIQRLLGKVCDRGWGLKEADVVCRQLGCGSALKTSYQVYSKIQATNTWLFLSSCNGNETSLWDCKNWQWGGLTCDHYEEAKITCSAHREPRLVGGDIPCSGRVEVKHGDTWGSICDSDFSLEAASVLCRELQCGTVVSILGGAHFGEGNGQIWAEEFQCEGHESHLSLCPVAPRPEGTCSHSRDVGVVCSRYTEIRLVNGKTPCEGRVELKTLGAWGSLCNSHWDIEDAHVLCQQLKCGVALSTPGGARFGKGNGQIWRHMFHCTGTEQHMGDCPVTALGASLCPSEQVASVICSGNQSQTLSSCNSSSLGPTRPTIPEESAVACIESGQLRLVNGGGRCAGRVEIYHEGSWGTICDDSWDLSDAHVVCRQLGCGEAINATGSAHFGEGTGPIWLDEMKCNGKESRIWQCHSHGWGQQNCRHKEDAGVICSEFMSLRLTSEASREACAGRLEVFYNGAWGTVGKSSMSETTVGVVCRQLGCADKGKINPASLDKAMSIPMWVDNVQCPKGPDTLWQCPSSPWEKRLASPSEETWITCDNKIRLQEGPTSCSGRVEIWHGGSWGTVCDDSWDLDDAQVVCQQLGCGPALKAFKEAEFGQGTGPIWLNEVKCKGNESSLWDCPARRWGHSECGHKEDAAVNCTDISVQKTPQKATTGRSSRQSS
T2 sequence (Q86VB7 42-1156): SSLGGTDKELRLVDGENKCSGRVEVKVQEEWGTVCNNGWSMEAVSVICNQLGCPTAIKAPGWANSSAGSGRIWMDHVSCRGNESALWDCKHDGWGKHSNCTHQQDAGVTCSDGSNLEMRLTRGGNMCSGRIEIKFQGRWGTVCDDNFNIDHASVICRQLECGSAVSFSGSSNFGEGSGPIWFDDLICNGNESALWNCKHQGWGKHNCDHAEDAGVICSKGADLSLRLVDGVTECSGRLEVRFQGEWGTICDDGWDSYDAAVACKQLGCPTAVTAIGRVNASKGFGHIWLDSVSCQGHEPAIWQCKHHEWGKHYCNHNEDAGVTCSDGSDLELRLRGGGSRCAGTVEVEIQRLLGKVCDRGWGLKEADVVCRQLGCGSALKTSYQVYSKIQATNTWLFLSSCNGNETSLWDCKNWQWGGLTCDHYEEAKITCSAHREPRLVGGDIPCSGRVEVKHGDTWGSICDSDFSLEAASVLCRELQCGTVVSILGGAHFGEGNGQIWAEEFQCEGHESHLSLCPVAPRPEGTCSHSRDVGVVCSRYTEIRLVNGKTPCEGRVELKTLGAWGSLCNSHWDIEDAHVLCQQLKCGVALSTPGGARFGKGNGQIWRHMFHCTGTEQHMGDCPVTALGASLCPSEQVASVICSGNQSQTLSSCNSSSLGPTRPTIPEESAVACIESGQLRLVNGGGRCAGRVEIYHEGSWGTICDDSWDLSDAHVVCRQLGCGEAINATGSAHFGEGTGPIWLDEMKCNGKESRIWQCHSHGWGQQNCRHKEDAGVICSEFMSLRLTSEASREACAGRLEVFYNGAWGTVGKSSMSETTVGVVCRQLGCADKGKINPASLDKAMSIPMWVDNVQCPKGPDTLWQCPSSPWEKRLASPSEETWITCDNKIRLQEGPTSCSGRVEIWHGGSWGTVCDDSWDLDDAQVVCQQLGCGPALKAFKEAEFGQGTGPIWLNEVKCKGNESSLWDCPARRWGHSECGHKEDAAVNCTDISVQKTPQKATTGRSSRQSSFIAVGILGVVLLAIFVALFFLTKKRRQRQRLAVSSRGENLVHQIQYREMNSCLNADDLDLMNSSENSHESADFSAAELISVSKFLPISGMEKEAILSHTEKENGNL

B1: [68Ga]Ga-NOTA-anti-CD163 single domain antibody (VHH)
VHH: DVQLVESGGGLVQPGGSLRLSCAASGITFSSYAVAWFRQASGKEREFVAFIGWDGDTTYYVDSVKGRFTISRDNAKNMVYLQMNSLKPDDTAIYYCARHKTLWRSSWDNRPVQYDYWGQGTQVTVSS
modifications: p-SCN-Bn-NOTA randomly conjugated to lysines, chelating 68Ga
notes: Radiolabeled form of the NOTA conjugate of the lead anti-CD163 sdAb; also called 68Gallium-labeled anti-CD163 single domain antibody; [68Ga]Ga-NOTA-anti-CD163 Nb
**Q.** What does the source list for B1?
**A.** EC50 (read off the curve) [1]: ~7 nM; Kd [2]: 9.11 nM

B2: NOTA-conjugated anti-CD163 single domain antibody (VHH)
VHH: B1 VHH
modifications: p-SCN-Bn-NOTA randomly conjugated to lysines; 2.32±0.12 chelator per single domain antibody
notes: The lead anti-CD163 sdAb (23766) conjugated to NOTA; also called NOTA-single domain antibody; NOTA-sdAb
**Q.** Which Kd [3] does the source give for B2 here?
**A.** 1.55 nM

B3: CD163-targeting single domain antibody 23766 (VHH, not shown: small tags and cut ends)
VHH: B1 VHH
notes: Llama-derived sdAb cloned in the pMECS phage vector; also called sdAb 23766; sdAb23766
**Q.** What does the source list for B3?
**A.** Kd [4]: 2.5 nM; Kd [5]: 3.5 nM; Kd [6]: 11.3 nM; Kd [7]: 0.5 nM
